One block for each molecule: values may come before it.
Key:
[1] = tested on: tyrosinase isolated from Agaricus bisporus; conditions: cited from earlier work
[2] = molecular target: T1, tyrosinase of B16 mouse melanoma cells (Mus musculus, UniProt P11344); conditions: cited from earlier work
T1 construct: tyrosinase of B16 mouse melanoma cells; host or cells: B16 mouse melanoma cells
T1 sequence (P11344 19-533): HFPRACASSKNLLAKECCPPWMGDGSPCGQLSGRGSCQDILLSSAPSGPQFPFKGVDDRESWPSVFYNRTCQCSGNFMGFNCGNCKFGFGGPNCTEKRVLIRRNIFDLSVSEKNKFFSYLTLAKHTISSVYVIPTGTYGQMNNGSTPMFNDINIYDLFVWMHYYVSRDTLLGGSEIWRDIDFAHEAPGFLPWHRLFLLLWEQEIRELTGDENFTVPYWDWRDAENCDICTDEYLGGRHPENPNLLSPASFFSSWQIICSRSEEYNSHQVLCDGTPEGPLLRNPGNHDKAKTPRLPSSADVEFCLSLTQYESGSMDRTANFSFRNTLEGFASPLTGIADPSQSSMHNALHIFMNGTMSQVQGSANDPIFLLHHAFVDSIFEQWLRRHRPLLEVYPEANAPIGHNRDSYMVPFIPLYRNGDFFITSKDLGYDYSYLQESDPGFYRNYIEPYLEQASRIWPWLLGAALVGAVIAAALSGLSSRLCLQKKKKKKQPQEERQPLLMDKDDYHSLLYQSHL

[3] = enzyme activity assay of refolded recombinant human tyrosinase with L-Dopa as enzyme substrate (A475); format: biochemical; conditions: for Specificity / Total enzyme activity: 10 L of the starting material, L-Dopa as enzyme substrate
Description: In order to analyze the enzyme activity of the aforementioned refolded recombinant human tyrosinase, […] of 50 mM PBS buffer (pH 7.0), and […] crude extract containing refolded recombinant human tyrosinase were mixed and left standing for 5 minutes at 37° C. Subsequently, […] L-Dopa was added (to a final concentration of 3 mM) to the mixture as an enzyme substrate and reacted for 30 minutes at 37° C. The absorbance at A475 was measured using a spectrophotometer.
The final yield of the purification, the total amount of the proteins, the enzyme activity and the analysis of the specificity were summarized in Table 1. Table 1 summarizes the results of 10 L of the starting material, and L-Dopa was used as an enzyme substrate in the enzyme activity assay.

Molecule: α-arbutin
inhibitory effects on tyrosinase [1]: does not exhibit any inhibitory effects
inhibition of tyrosinase [2]: significantly inhibits

B1: recombinant human tyrosinase: mature human tyrosinase of 512 amino acids, about 57 kDa, expressed in E. coli BL21(DE3)/pET-23a(+)-RHT and refolded (protein, UniProt P14679 19-529, looked up)
Tyrosinase: HFPRACVSSKNLMEKECCPPWSGDRSPCGQLSGRGSCQNILLSNAPLGPQFPFTGVDDRESWPSVFYNRTCQCSGNFMGFNCGNCKFGFWGPNCTERRLLVRRNIFDLSAPEKDKFFAYLTLAKHTISSDYVIPIGTYGQMKNGSTPMFNDINIYDLFVWMHYYVSMDALLGGSEIWRDIDFAHEAPAFLPWHRLFLLRWEQEIQKLTGDENFTIPYWDWRDAEKCDICTDEYMGGQHPTNPNLLSPASFFSSWQIVCSRLEEYNSHQSLCNGTPEGPLRRNPGNHDKSRTPRLPSSADVEFCLSLTQYESGSMDKAANFSFRNTLEGFASPLTGIADASQSSMHNALHIYMNGTMSQVQGSANDPIFLLHHAFVDSIFEQWLRRHRPLQEVYPEANAPIGHNRESYMVPFIPLYRNGDFFISSKDLGYDYSYLQDSDPDSFQDYIKSYLEQASRIWSWLLGAAMVGAVLTALLAGLVSLLCRHKRKQLPEEKQPLLMEKEDYHSLYQSHL
tyrosinase activity ([3]; after isolation from the crude extract using ion-exchange chromatography): 15.5 units/mg
tyrosinase activity ([3]; by using gel filtration chromatography): 57.7 units 1 mg

More lines, main results first:

Specificity [3]: 15.5 units/mg
B2: DEAE ion-exchange: recombinant human tyrosinase fractions after DEAE sepharose Fast Flow ion-exchange chromatography (protein, UniProt P14679 19-529, looked up)
Tyrosinase: B1 Tyrosinase
Total enzyme activity [3]: 1383.1 units

Specificity [3]: 57.7 units/mg
B3: Gel filtration: recombinant human tyrosinase fractions after Sephacryl S-100 HR gel filtration chromatography (protein, UniProt P14679 19-529, looked up)
Tyrosinase: B1 Tyrosinase
Total enzyme activity [3]: 144.3 units

— patent US20130280784A1, “ESCHERICHIA COLI EXPRESSION SYSTEM FOR PRODUCING MATURE HUMAN TYROSINASE AND A PRODUCING METHOD THEREOF” (PROVIDENCE UNIVERSITY, priority 2012, published 2013)
